Reference: IntAct's records for PubMed 20818436

B1: Zinc finger protein GLI1 (Homo sapiens), P08151 (parent)
chain: MFNSMTPPPISSYGEPCCLRPLPSQGAPSVGTEGLSGPPFCHQANLMSGPHSYGPARETNSCTEGPLFSSPRSAVKLTKKRALSISPLSDASLDLQTVIRTSPSSLVAFINSRCTSPGGSYGHLSIGTMSPSLGFPAQMNHQKGPSPSFGVQPCGPHDSARGGMIPHPQSRGPFPTCQLKSELDMLVGKCREEPLEGDMSSPNSTGIQDPLLGMLDGREDLEREEKREPESVYETDCRWDGCSQEFDSQEQLVHHINSEHIHGERKEFVCHWGGCSRELRPFKAQYMLVVHMRRHTGEKPHKCTFEGCRKSYSRLENLKTHLRSHTGEKPYMCEHEGCSKAFSNASDRAKHQNRTHSNEKPYVCKLPGCTKRYTDPSSLRKHVKTVHGPDAHVTKRHRGDGPLPRAPSISTVEPKREREGGPIREESRLTVPEGAMKPQPSPGAQSSCSSDHSPAGSAANTDSGVEMTGNAGGSTEDLSSLDEGPCIAGTGLSTLRRLENLRLDQLHQLRPIGTRGLKLPSLSHTGTTVSRRVGPPVSLERRSSSSSSISSAYTVSRRSSLASPFPPGSPPENGASSLPGLMPAQHYLLRARYASARGGGTSPTAASSLDRIGGLPMPPWRSRAEYPGYNPNAGVTRRASDPAQAADRPAPARVQRFKSLGCVHTPPTVAGGGQNFDPYLPTSVYSPQPPSITENAAMDARGLQEEPEVGTSMVGSGLNPYMDFPPTDTLGYGGPEGAAAEPYGARGPGSLPLGPGPPTNYGPNPCPQQASYPDPTQETWGEFPSHSGLYPGPKALGGTYSQCPRLEHYGQVQVKPEQGCPVGSDSTGLAPCLNAHPSEGPPHPQPLFSHYPQPSPPQYLQSGPYTQPPPDYLPSEPRPCLDFDSPTHSTGQLKAQLVCNYVQSQQELLWEGGGREDAPAQEPSYQSPKFLGGSQVSPSRAKAPVNTYGPGFGPNLPNHKSGSYPTPSPCHENFVVGANRASHRAAAPPRLLPPLPTCYGPLKVGGTNPSCGHPEVGRLGGGPALYPPPEGQVCNPLDSLDLDNTQLDFVAILDEPQGLSPPPSHDQRGSSGHTPPPSGPPNMAVGNMSVLLRSLPGETEFLNSSA

Variants of: B1
Conditions: with itch_human ITCH

Row | effect of a mutation on the interaction | Variant
1 | disrupting interaction | Y859F;Y872F;S1060A
